Assay results as given in paper PMC8920335, “A CGA/EGFR/GATA2 positive feedback circuit confers chemoresistance in gastric cancer” (The Journal of Clinical Investigation, 2022).

Molecular target: T1, recombinant ECD of EGFR (UniProt P00533 25-645)
T1 construct: Epidermal growth factor receptor, recombinant extracellular domain immobilised for SPR; Source, limits and tags may be told in the Supplemental Methods
Assay: SPR; BIAcore S200, room temperature; recombinant ECD of EGFR immobilised on a CM5 chip by amine coupling; purified rCGA injected at 30 μL/min for 60 seconds, dissociation 100 seconds; 1:1 Langmuir binding model
Settings: both partners purified

Kd: 11.8 µM
B1: recombinant human CGA (glycoprotein hormone α polypeptide), 6×His tag removed (natural protein)
chain: not shown
notes: Glycoprotein hormones alpha chain (CGA), human; CGA ORF in a modified pHL-sec vector, secreted protein; engineered enterokinase site at the C-terminus before the 6×His tag; Made in mammalian cells; Residues of the enterokinase site may be left at the C-terminus after digestion; also called rCGA; α-subunit of glycoprotein hormones; not shown: His6, C-terminal, cleaved
